Measurements published in patent US12612465B2, “Formulations comprising PCSK9 specific monoclonal antibodies” (Amgen Inc., priority 2012, dated 2026).
Marks after values point to notes of the source that are not given here.

Legend:
PCSK9 [1] = target: T1, PCSK9 (Homo sapiens, UniProt Q8NBP7); assay: 12 week study in hypercholesterolemic patients unable to tolerate a statin (Example 23); type: in vivo; conditions: statin-intolerant, preliminary
T1 construct: endogenous in cells; host or cells: human subjects, in vivo
Method: It is planned to enroll 150 subjects. […] Randomization will be stratified by screening LDL-C level (<130 mg/dL [3.4 mmol/L] vs ≥130 mg/dL) and statin use at baseline (yes vs no). Randomization should occur within 5-10 days of the screening LDL-C evaluation used to determine eligibility. Monoclonal antibody, 21B12, and placebo will be blinded. Ezetimibe is not blinded. Study visits are at weeks 2, 4, 8, and 12. […] The end-of-study visit and the last evaluation of lipids is at week 12.
Males and females, ≥18 to ≤75 years of age, are eligible for this study. Subject must have tried at least 1 statin and have been unable to tolerate any dose or an increase in statin dose above the following total weekly maximum doses due to myalgia or myopathy: atorvastatin ≤70 mg, simvastatin ≤140 mg, pravastatin ≤140 mg, rosuvastatin ≤35 mg, lovastatin ≤140 mg, fluvastatin ≤280 mg. For unlisted statins, the maximal total weekly dose should not exceed 7 times the smallest available tablet size. Symptoms must have resolved when statin was discontinued or the dose reduced. If receiving statin (not exceeding the maximal dose defined above), bile-acid sequestering resin, and/or stanol therapy, the dose(s) must be stable for at least 4 weeks prior to LDL-C screening. If the subject is on ezetimibe at start of screening, ezetimibe must be discontinued for ≥4 weeks before LDL-C screening. Depending on their risk category (based on NCEP ATP III treatment goals) subjects must meet the following fasting LDL-C (by central laboratory) criteria at screening: ≥100 mg/dL (2.6 mmol/L) for subjects with diagnosed coronary heart disease (CHD) or CHD risk equivalent; ≥130 mg/dL (3.4 mmol/L) for subjects without diagnosed CHD or risk equivalent and 2 or more risk factors; ≥160 mg/dL (4.1 mmol/L) for subjects without diagnosed CHD or risk equivalent and with 1 or no risk factors. Fasting triglycerides must be ≤400 mg/dL (4.5 mmol/L) as determined by the central laboratory analysis at screening.

PCSK9 [2] = target: T1, PCSK9; assay: 12 week monotherapy dose-ranging study, Framingham risk 10% or less (Example 24); type: in vivo; conditions: for Treatment difference vs ezetimibe in LDL-C percent change, week 12 / Treatment difference vs placebo in LDL-C percent change, week 12: P < 0.001; for mean percent reduction from baseline in LDL-C: monotherapy, preliminary
Method: Ezetimibe was not blinded. The end-of-study visit and the last estimation of lipids was at week 12 for subjects on Q4W IP schedule or on ezetimibe and week 14 for subjects on Q2W IP schedule.
Males and females, ≥18 to ≤75 years of age, were eligible for this study. Fasting LDL-C was ≥100 mg/dL (2.6 mmol/L) and ≤190 mg/dL (4.9 mmol/L) and fasting triglycerides ≤400 mg/dL (4.5 mmol/L) by central laboratory at screening.
The primary endpoint was the percent change from baseline in LDL-C at week 12. Secondary endpoints included percent changes in apolipoprotein B (ApoB), lipoprotein (a) (Lp(a)), and in the ratio of total cholesterol to high-density lipoprotein (HDL)-C. Tolerability and safety were also evaluated.

[3] = Osmolality of 21B12 formulations; type: physicochemical
Text: In certain embodiments, the pharmaceutical formulation is isotonic with an osmolality ranging from between about 250 to about 350 miliosmol/kg, e.g., about 250 mOsm/kg, about 260 mOsm/kg, about 270 mOsm/kg, about 280 mOsm/kg, about 290 mOsm/kg, about 300 mOsm/kg, about 310 mOsm/kg, about 320 mOsm/kg, about 330 mOsm/kg, about 340 mOsm/kg, or about 350 mOsm/kg, and including all values in between. As used herein, “osmolality” is the measure of the ratio of solutes to volume fluid. In other words, it is the number of molecules and ions (or molecules) per kilogram of a solution. Osmolality may be measured on an analytical instrument called an osmometer, such as Advanced Instruments 2020 Multi-sample Osmometer, Norwood, Mass. The Advanced Instruments 2020 Multi-sample Osmometer measures osmolality by using the Freezing Point Depression method. The higher the osmolytes in a solution, the temperature in which it will freeze drops. Osmolality may also be measured using any other methods and in any other units known in the art such as linear extrapolation.

[4] = 280 mg Q4W SC, end of dosing interval
[5] = 350 mg Q4W SC, end of dosing interval

T1 sequence (Q8NBP7 153-692): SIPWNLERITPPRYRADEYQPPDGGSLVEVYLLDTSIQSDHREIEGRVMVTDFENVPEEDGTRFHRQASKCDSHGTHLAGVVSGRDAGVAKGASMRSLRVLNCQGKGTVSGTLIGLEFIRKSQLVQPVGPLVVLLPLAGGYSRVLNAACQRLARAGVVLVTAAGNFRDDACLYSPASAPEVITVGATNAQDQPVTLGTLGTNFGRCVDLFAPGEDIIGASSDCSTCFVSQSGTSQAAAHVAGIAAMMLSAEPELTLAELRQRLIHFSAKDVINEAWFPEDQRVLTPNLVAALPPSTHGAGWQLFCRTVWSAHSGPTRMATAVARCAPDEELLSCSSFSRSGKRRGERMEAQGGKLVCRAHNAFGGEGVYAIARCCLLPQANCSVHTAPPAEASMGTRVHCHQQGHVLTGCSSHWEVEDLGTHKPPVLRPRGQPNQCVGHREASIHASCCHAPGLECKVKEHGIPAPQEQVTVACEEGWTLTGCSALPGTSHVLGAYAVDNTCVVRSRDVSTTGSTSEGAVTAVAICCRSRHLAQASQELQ

- Least squares mean percent change from baseline in LDL-C, week 12 (PCSK9 [2]; 70 mg Q2W SC (N = 45)): −40.98%
- Treatment difference vs ezetimibe in LDL-C percent change, week 12 (PCSK9 [2]; 70 mg Q2W SC): −26.73* %
- Treatment difference vs placebo in LDL-C percent change, week 12 (PCSK9 [2]; 70 mg Q2W SC): −37.27* %
- mean percent reduction from baseline in LDL-C (PCSK9 [2]; 70 mg Q2W SC, end of dosing interval): 41.21%
- Least squares mean percent change from baseline in LDL-C, week 12 (PCSK9 [2]; 105 mg Q2W SC (N = 46)): −43.87%
- Treatment difference vs ezetimibe in LDL-C percent change, week 12 (PCSK9 [2]; 105 mg Q2W SC): −29.62* %
- Treatment difference vs placebo in LDL-C percent change, week 12 (PCSK9 [2]; 105 mg Q2W SC): −40.17* %
- mean percent reduction from baseline in LDL-C (PCSK9 [2]; 105 mg Q2W SC, end of dosing interval): 45.44%
- Least squares mean percent change from baseline in LDL-C, week 12 (PCSK9 [2]; 140 mg Q2W SC (N = 45)): −50.93%
- Treatment difference vs ezetimibe in LDL-C percent change, week 12 (PCSK9 [2]; 140 mg Q2W SC): −36.68* %
- Treatment difference vs placebo in LDL-C percent change, week 12 (PCSK9 [2]; 140 mg Q2W SC): −47.23* %
- mean percent reduction from baseline in LDL-C (PCSK9 [2]; 140 mg Q2W SC): 51.56%
- Least squares mean percent change from baseline in LDL-C, week 12 (PCSK9 [2]; 280 mg Q4W SC (N = 45)): −39.02%
- Treatment difference vs ezetimibe in LDL-C percent change, week 12 (PCSK9 [2]; 280 mg Q4W SC): −25.17* %
- Treatment difference vs placebo in LDL-C percent change, week 12 (PCSK9 [2]; 280 mg Q4W SC): −43.57* %
- mean percent reduction from baseline in LDL-C (PCSK9 [2]; [4]): 37.53%
- Least squares mean percent change from baseline in LDL-C, week 12 (PCSK9 [2]; 350 mg Q4W SC (N = 45)): −43.20%
- Treatment difference vs ezetimibe in LDL-C percent change, week 12 (PCSK9 [2]; 350 mg Q4W SC): −29.34* %
- Treatment difference vs placebo in LDL-C percent change, week 12 (PCSK9 [2]; 350 mg Q4W SC): −47.74* %
- mean percent reduction from baseline in LDL-C (PCSK9 [2]; [5]): 42.16%
- Least squares mean percent change from baseline in LDL-C, week 12 (PCSK9 [2]; 420 mg Q4W SC (N = 45)): −47.98%
- Treatment difference vs ezetimibe in LDL-C percent change, week 12 (PCSK9 [2]; 420 mg Q4W SC): −34.14* %
- Treatment difference vs placebo in LDL-C percent change, week 12 (PCSK9 [2]; 420 mg Q4W SC): −52.53* %
- mean percent reduction from baseline in LDL-C (PCSK9 [2]; 420 mg Q4W SC): 47.52%
- change in LDL-C from baseline to week 12 greater than with placebo (PCSK9 [2]; final data): up to 72 mg/dL
- mean reduction from baseline for ApoB (PCSK9 [2]; final data): up to 44%
- mean reduction from baseline for Lp(a) (PCSK9 [2]; final data): up to 29%
- LDL-C reductions from baseline greater than ezetimibe (PCSK9 [2]; week 12, final data): 37%
- least-squares (LS) mean percent reduction from baseline in LDL-C (PCSK9 [2]; week 12, final data, across dose regimens): up to 51%
B1: 21B12: human anti-PCSK9 monoclonal antibody, light/heavy variable region SEQ ID NO 23/49 (antibody, listed as Homo sapiens, V domains shown)
VH: QVQLVQSGAEVKKPGASVKVSCKASGYTLTSYGISWVRQAPGQGLEWMGWVSFYNGNTNYAQKLQGRGTMTTDPSTSTAYMELRSLRSDDTAVYYCARGYGMDVWGQGTTVTVSS
VL: QSALTQPASVSGSPGQSITISCTGTSSDVGGYNSVSWYQQHPGKAPKLMIYEVSNRPSGVSNRFSGSKSGNTASLTISGLQAEDEADYYCNSYTSTSMVFGGGTKLTVL
- LS mean percent increase from baseline in HDL-C (PCSK9 [1]; [4]): 8.62%
- LS mean percent reduction from baseline in LDL-C (PCSK9 [1]; [4]): 38.79%
- LS mean percent reduction from baseline in Lp(a) (PCSK9 [1]; [4]): 27.38%
- LS mean percent reduction from baseline in VLDL-C (PCSK9 [1]; [4]): 31.02%
- LS mean percent reduction from baseline in non-HDL-C (PCSK9 [1]; [4]): 39.92%
- LS mean percent reduction from baseline in total cholesterol (PCSK9 [1]; [4]): 31.03%
- LS mean percent reduction from baseline in triglycerides (PCSK9 [1]; [4]): 15.35%
- LS mean percent increase from baseline in HDL-C (PCSK9 [1]; [5]): 4.62%
- LS mean percent reduction from baseline in LDL-C (PCSK9 [1]; [5]): 40.01%
- LS mean percent reduction from baseline in Lp(a) (PCSK9 [1]; [5]): 16.04%
- LS mean percent reduction from baseline in VLDL-C (PCSK9 [1]; [5]): 38.14%
- LS mean percent reduction from baseline in non-HDL-C (PCSK9 [1]; [5]): 42.86%
- LS mean percent reduction from baseline in total cholesterol (PCSK9 [1]; [5]): 34.46%
- LS mean percent reduction from baseline in triglycerides (PCSK9 [1]; [5]): 19.22%
- LS mean percent increase from baseline in HDL-C (PCSK9 [1]; 420 mg Q4W SC): 7.55%
- LS mean percent reduction from baseline in LDL-C (PCSK9 [1]; 420 mg Q4W SC): 50.63%
- LS mean percent reduction from baseline in Lp(a) (PCSK9 [1]; 420 mg Q4W SC): 23.84%
- LS mean percent reduction from baseline in VLDL-C (PCSK9 [1]; 420 mg Q4W SC): 37.27%
- LS mean percent reduction from baseline in non-HDL-C (PCSK9 [1]; 420 mg Q4W SC): 53.49%
- LS mean percent reduction from baseline in total cholesterol (PCSK9 [1]; 420 mg Q4W SC): 42.23%
- LS mean percent reduction from baseline in triglycerides (PCSK9 [1]; 420 mg Q4W SC): 19.55%
- Osmolality ([3]; 73 mg/mL, 10 mM Na acetate, pH 5.2 +3% proline): 253 mOsmol/kg
- Osmolality ([3]; 76 mg/mL, 10 mM Na acetate, pH 5.2): 53 mOsmol/kg
- Osmolality ([3]; 116 mg/mL, 10 mM sodium acetate, pH 4.8, 50 mM methionine + 2% benzyl alcohol): 329 mOsmol/kg
- Osmolality ([3]; 116 mg/mL, 10 mM sodium acetate, pH 4.8, 150 mM arginine): 241 mOsmol/kg
- Osmolality ([3]; 116 mg/mL, 10 mM sodium acetate, pH 4.8, 1.5% proline + 1% benzyl alcohol): 277 mOsmol/kg
- Osmolality ([3]; 116 mg/mL, 10 mM sodium acetate, pH 4.8, 2% proline + 1% benzyl alcohol): 313 mOsmol/kg
- Osmolality ([3]; 116 mg/mL, 10 mM sodium acetate, pH 4.8, no excipient): 72 mOsmol/kg
- Osmolality ([3]; 117 mg/mL, 10 mM Na acetate, pH 4.5): 59 mOsmol/kg
- Osmolality ([3]; 122 mg/mL, 10 mM Na acetate, pH 5.2 +3% proline): 274 mOsmol/kg
- Osmolality ([3]; 130 mg/mL, 10 mM Na acetate, pH 5): 59 mOsmol/kg
- Osmolality ([3]; 148 mg/mL, 10 mM Na acetate, pH 5.2 +3% proline): 301 mOsmol/kg
- Osmolality ([3]; 154 mg/mL, 10 mM Na acetate, pH 5.2): Did not freeze
- Osmolality ([3]; […], 10 mM Na acetate, pH 4): 59 mOsmol/kg
- Osmolality ([3]; […], 10 mM Na acetate, pH 5.2 +150 mM NaCl): 346 mOsmol/kg
- Osmolality ([3]; […], 10 mM Na acetate, pH 5.2 +3% proline): 252 mOsmol/kg
- Osmolality ([3]; […], 10 mM Na acetate, pH 5.5): 64 mOsmol/kg
- Osmolality ([3]; […], 10 mM Na acetate, pH 5.5 +150 Mm methionine and 3% benzyl alcohol): 520 mOsmol/kg
